Measured values from article PMC5703946, “Modification and functional adaptation of the MBF1 gene family in the lichenized fungus Endocarpon pusillum under environmental stress” (Scientific Reports, 2017).

Molecular target: T1, His-yTBP (yeast TATA-box-binding protein) (S. cerevisiae, UniProt P13393 1-240)
T1 sequence (looked up): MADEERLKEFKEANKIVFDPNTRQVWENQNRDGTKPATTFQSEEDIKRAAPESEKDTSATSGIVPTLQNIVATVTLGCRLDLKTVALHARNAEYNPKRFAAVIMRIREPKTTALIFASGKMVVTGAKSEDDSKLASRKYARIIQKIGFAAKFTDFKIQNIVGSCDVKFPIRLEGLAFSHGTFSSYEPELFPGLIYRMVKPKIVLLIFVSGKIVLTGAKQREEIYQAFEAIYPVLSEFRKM
Experiment: pull-down; His-yTBP held on Ni-NTA agarose beads (from soluble E. coli lysate, washed three times); equal amounts of purified GST-MBF1 proteins or purified GST incubated with the beads for 4 h at 4 °C; beads washed three times; detected by immunoblot (Wes) with anti-His and anti-GST antibodies
Settings: both partners purified

B1: GST-yMBF1 (Saccharomyces cerevisiae multiprotein-bridging factor 1) (natural protein, S. cerevisiae, UniProt O14467 1-151, looked up)
chain: MSDWDTNTIIGSRARAGGSGPRANVARSQGQINAARRQGLVVSVDKKYGSTNTRGDNEGQRLTKVDRETDIVKPKKLDPNVGRAISRARTDKKMSQKDLATKINEKPTVVNDYEAARAIPNQQVLSKLERALGVKLRGNNIGSPLGAPKKK
notes: MBF1 of Saccharomyces cerevisiae (amino acids 1 to 151 by the domain limits in the methods); source: E. coli BL21, purified (glutathione agarose beads, eluted)
- binding result: binds
